Test results from patent publication US20220226442A1 (published 2022).

Kd (M104D): 0.028 nM
Kd (V69A): 0.023 nM
Kd (N71Y): 0.018 nM
Kd (I114W): 0.038 nM
Kd (E68Q): 0.022 nM
Kd (L72I): 0.024 nM
B1: CD25 (receptor)
chain: ELCDDDPPEIPHATFKAMAYKEGTMLNCECKRGFRRIKSGSLYMLCTGNSSHSSWDNQCQCTSSATRNTTKQVTPQPEEQKERKTTEMQSPMQPVDQASLPGHCREPPPWENEATERIYHFVVGQMVYYQCVQGYRALHRGPAESVCKMTHGKTRWTQPQLICTGEMETSQFPGEEKPQASPEGRPESETSCLVTTTDFQIQTEMAATMETSIFTTEYQHHHHHH
